Measured values taken from publication PMC2139957.

B1: p75NTR (p75 neurotrophin receptor): N32D (protein)
parent chain: MRRAGAACSAMDRLRLLLLLILGVSSGGAKETCSTGLYTHSGECCKACNLGEGVAQPCGANQTVCEPCLDNVTFSDVVSATEPCKPCTECLGLQSMSAPCVEADDAVCRCAYGYYQDEETGHCEACSVCEVGSGLVFSCQDKQNTVCEECPEGTYSDEANHVDPCLPCTVCEDTERQLRECTPWADAECEEIPGRWIPRSTPPEGSDSTAPSTQEPEVPPEQDLVPSTVADMVTTVMGSSQPVVTRGTTDNLIPVYCSILAAVVVGLVAYIAFKRWNSCKQNKQGANSRPVNQTPPPEGEKLHSDSGISVDSQSLHDQQTHTQTASGQALKGDGNLYSSLPLTKREEVEKLLNGDTWRHLAGELGYQPEHIDSFTHEACPVRALLASWGAQDSATLDALLAALRRIQRADIVESLCSESTATSPV

What was measured:
[1] = steady-state domain-selective surface biotinylation, immunoblot; conditions: glycan lost; control: ΔBS p75NTR
[2] = pulse-chase, ER-to-Golgi transport by O-glycan acquisition; conditions: glycan lost; control: native rat p75NTR

Molecule | localisation_or_trafficking, other: percent apical [1] | localisation_or_trafficking, other: half-time of ER-to-Golgi transport [2]
p75NTR (p75 neurotrophin receptor): N32D/ΔBS | no change, <10 vs <10 | 
B1 |  | no change, 35–40 vs 35–40
